The values below come from patent US20240368668A1, “SUBSTRATES AND BIOMARKERS OF ADAMTS7” (The Broad Institute, Inc., priority 2021, published 2024).

In one assay the target is T1, mouse ADAMTS7 (Mus musculus, UniProt Q68SA9).
T1 construct: Full-length mouse Adamts7 1-1857 (Uniprot Q68SA9, WT or E373Q catalytic mutant); expressed in transfected cells; host or cells: Human Coronary Artery Smooth Muscle Cells (HCA-SMC, Lonza), adenovirus 50 MOI
T1 sequence (Q68SA9 221-1657): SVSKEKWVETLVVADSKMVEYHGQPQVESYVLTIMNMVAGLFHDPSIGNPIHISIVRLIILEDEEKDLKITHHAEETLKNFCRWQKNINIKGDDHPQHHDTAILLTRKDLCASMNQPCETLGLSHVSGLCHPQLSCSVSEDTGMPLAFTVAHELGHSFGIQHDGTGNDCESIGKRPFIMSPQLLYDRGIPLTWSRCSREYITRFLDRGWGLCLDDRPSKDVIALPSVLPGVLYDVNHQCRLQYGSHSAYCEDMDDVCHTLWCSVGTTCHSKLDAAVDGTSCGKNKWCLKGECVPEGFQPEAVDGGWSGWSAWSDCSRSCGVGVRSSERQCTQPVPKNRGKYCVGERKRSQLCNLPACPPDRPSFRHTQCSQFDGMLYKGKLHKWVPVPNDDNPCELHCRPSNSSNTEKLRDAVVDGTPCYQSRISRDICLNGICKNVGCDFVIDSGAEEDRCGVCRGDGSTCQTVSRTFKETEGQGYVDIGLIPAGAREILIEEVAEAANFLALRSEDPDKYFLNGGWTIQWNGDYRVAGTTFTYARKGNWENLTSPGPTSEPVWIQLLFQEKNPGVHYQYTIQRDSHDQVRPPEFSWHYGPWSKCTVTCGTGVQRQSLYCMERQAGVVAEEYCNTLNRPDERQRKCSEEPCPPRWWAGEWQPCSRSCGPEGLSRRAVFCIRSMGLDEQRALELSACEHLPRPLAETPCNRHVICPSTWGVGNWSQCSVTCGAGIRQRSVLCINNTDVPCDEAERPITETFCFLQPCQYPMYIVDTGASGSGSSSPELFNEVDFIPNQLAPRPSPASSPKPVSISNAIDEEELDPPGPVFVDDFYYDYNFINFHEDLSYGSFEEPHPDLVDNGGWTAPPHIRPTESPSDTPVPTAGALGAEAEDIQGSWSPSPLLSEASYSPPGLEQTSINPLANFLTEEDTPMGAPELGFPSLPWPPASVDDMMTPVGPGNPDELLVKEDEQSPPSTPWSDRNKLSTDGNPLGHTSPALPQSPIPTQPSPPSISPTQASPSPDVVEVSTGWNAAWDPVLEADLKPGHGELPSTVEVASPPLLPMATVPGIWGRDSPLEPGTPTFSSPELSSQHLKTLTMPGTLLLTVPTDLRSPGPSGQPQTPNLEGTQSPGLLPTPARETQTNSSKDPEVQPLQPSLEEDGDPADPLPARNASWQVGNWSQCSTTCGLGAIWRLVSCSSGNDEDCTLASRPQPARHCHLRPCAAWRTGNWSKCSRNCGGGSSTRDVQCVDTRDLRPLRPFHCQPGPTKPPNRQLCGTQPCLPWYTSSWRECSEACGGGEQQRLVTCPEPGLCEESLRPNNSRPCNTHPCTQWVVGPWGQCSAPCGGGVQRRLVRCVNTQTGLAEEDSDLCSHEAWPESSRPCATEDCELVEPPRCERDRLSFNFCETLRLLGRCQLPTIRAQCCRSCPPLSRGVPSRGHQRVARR
The assay is described as follows: TMT10 TAILS N-terminomics, SMC2 experiment (process replicates, trypsin/AspN digest). It is filed as cell-based. Conditions: SMC2_TAILS HC; log fold change of N-terminal peptide, Ad-mADAMTS7 WT over Luc. In a few lines:
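Full-length mouse ADAMTS7 (WT or E373Q mutant, C-terminal 3xFLAG) or luciferase was transduced via adenovirus, 50 MOI, into HCA-SMC (SMC1, SMC2) or HUVEC. SMC1: pooled media, technical triplicates 400 ug; SMC2: process triplicates 300 ug; HUVEC: process triplicates 200 ug, bFGF2 10 ng/ml.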
Consider “VCAN_3367 (FKNSSSAK; listed as Homo sapiens)”, for which the logFC.mWT.over.Luc is given as 0.79.
On the same count and under the same terms, then “VIM_276 (YESVAAKNLQ; listed as Homo sapiens)”, with 0.88; and “VIM_322 (QVQSLTCEV; listed as Homo sapiens)”, with 1.01.
As for “ZSCAN4_25 (FQQSQGPAVQR; listed as Homo sapiens)”, the logFC.mWT.over.Luc worked out at 2.79.

Staying with this assay, now noted: log fold change, ADAMTS7 WT over luciferase.
Regarding “TG_1017 (GASALLR; listed as Homo sapiens)”, the logFC.mWT.over.Lux was found to be 4.08.
Still for that read-out and setting: in the case of “THBS1_972 (QNDPNWVVR; listed as Homo sapiens)” it was 3.55; in that of “TLN1_1501 (HTSALCNSCR; listed as Homo sapiens)”, 1.31.
With “TMEM132A_52 (LLDAPEHFR; listed as Homo sapiens)”, the logFC.mWT.over.Lux turned out to be 2.65.
On the same count and under the same terms, then “VASN_138 (HIQPGAFDTLDR; listed as Homo sapiens)”, with 1.63.
As for “VASP_229 (AIAGAKLR; listed as Homo sapiens)”, the logFC.mWT.over.Lux is recorded as 4.48.
Still for that read-out and setting: then “VIM_433 (LVDTHSKR; listed as Homo sapiens)”, with 2.91.
